# Test results published in publication PMC8939769.
# Target: SARS-CoV-2 spike protein receptor binding domain (RBD) (SARS-CoV-2) (UniProt P0DTC2)
# Experiment: ELISA
substance,measurement,value
AZD7442 (combination of AZD8895 and AZD1061),IC50,0.065 µg/mL
